Reference: US20180282719A1 (published 2018)
Numbering of substitutions follows the chain as printed. Like-named read-outs stand apart in the source and are kept apart here.

T1: soluble mouse IL-31 receptor (mouse, UniProt Q8K5B1 19-499)
T1 sequence (looked up): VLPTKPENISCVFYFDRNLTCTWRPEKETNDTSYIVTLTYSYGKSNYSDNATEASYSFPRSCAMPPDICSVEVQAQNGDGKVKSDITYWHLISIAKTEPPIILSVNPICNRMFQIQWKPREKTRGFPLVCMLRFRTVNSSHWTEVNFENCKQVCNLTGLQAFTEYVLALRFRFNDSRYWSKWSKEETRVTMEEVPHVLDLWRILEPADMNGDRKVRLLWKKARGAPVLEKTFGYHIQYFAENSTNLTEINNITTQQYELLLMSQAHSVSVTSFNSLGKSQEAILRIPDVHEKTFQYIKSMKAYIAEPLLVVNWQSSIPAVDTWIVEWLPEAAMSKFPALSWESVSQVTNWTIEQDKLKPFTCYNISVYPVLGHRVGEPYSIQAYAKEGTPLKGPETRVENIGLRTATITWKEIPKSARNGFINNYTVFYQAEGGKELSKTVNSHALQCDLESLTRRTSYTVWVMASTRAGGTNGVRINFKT

T2: recombinant soluble human IL-6 receptor (SR344) (human, UniProt P08887 20-344, biotinylated (sites not given) where immobilized via streptavidin or used in phage ELISA)
T2 construct: also called soluble IL-6 receptor; membrane-type IL-6 receptor (when biotinylated and immobilized on the chip)
T2 sequence (looked up): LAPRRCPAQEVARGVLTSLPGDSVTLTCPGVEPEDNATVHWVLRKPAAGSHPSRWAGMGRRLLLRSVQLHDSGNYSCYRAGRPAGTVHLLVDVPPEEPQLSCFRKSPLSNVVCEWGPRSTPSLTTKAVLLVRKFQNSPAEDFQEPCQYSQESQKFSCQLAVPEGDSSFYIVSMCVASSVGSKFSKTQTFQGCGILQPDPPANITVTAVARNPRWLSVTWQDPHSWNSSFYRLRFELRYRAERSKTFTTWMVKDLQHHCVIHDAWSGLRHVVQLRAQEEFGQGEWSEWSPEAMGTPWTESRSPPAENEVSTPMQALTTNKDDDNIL

B1: Anti-IL31R wild type (antibody, human IgG1, lambda, V domains shown)
VH: not shown
VL: LPVLTQPPSVSVAPGQTARITCGGNNIGSKTVYWYQQEPGQAPVLVVYDDTDRPAGIPERFSGANSGNTATLTISRVEAGDEADYYCQVWDSSTDHGVFGGGTKLTVLG
notes: Antibody of WO 2007/142325, rebuilt and tested here; also called anti-IL-31 receptor antibody including the H chain (WT) and L chain (WT)
B2: Anti-IL6 wild type (antibody, human IgG1, kappa, V domains shown)
VH: EVQLVESGGKLLKPGGSLKLSCAASGFTFSSFAMSWFRQSPEKRLEWVAEISSGGSYTYYPDTVTGRFTISRDNAKNTLYLEMSSLRSEDTAMYYCARGLWGYYALDYWGQGTSVTVSS
VL: QIVLIQSPAIMSASPGEKVTMTCSASSSVSYMYWYQQKPGSSPRLLIYDTSNLASGVPVRFSGSGSGTSYSLTISRMEAEDAATYYCQQWSGYPYTFGGGTKLEIKR
notes: Antibody of WO 2004/039826, rebuilt and tested here; also called anti-IL-6 antibody including the H chain (WT) and L chain (WT)
B3: Anti-IL-6 clone 2 (antibody, human IgG1, kappa, V domains shown)
VH: B2 VH with F32H, Y60H, D62H, Y103H
VL: B2 VL with N52H, L53H, Q89H, Y93H
notes: H chain (c1) / L chain (c2)
B4: Anti-IL6 clone 1 (antibody, human IgG1, kappa, V domains shown)
VH: B2 VH with F32H, Y60H, D62H, Y103H
VL: B2 VL with L53H, Q89H, Y93H
notes: H chain (c1) / L chain (c1)
B5: Fv2-IgG1 (antibody, V domains shown)
VH: QVQLQESGPGLVKPSETLSLTCAVSGYSISHDHAWSWVRQPPGEGLEWIGHISYSGITNYNPHLQDRVTISRDTSKNQFSLKLSSVTAADTAAYYCARFLARITAHDHWGEGTLVTVSS
VL: DIQMTQSPSSLSASVGDSVTITCQASQDISSHLNWYQQKPGKAPELLIYYGSHLHSGVPSRFSGSGSGTDFTFTISSLEAEDAATYYCGQGNRLPYTFGQGTKVEIE
notes: VH1-IgG1 as H chain and L82 as L chain

What was measured:
[1] = molecular target: T1, soluble mouse IL-31 receptor; test: SPR Biacore T100, antibody on protein A/G chip, soluble mouse IL-31 receptor analyte, 25 C, ratio of pH 5.5 to pH 7.4
Protocol: (§1) Kinetic analysis of antigen-antibody reactions at pH 5.5 and pH 7.4 was carried out using a Biacore T100™ surface plasmon resonance system (GE Healthcare) for the two types of antibodies prepared as mentioned above: Anti-IL31R wild type and Anti-IL31R clone 1 (buffer: DPBS(−) (pH 7.4 or pH 5.5), 150 mM NaCl, 0.01% TWEEN® 20 (polyoxyethelene sorbitan monolaurate), 0.02% NaN₃). The antibodies were bound to a sensor chip on which recomb-protein A/G (Pierce) was immobilized by amine coupling, and then the soluble mouse IL-31 receptor (prepared according to the method described in WO 2007/142325) adjusted to an appropriate concentration was injected therein as an analyte. All the measurements were carried out at 25° C. Association rate constants kₐ (1/Ms) and dissociation rate constants kd (1/s) were calculated using Biacore T100™ Evaluation Software (GE Healthcare), and dissociation constants KD (M) were calculated based on those values (Table 16). Furthermore, the ratio of affinity at pH 5.5 and pH 7.4 was calculated for each clone to evaluate the pH-dependent binding.

[2] = molecular target: T1, soluble mouse IL-31 receptor; test: SPR Biacore T100, antibody on protein A/G chip, soluble mouse IL-31 receptor analyte, pH 7.4, 25 C
Protocol: as §1

human IL-6 (Toray) [3] = molecular target: T3, human IL-6 (Toray) (human, UniProt P05231 30-212); test: SPR Biacore T100, antibody on protein A/G chip, human IL-6 analyte, 37 C, ratio of pH 5.5 to pH 7.4
T3 construct: also called human interleukin-6
Protocol: (§2) Kinetic analysis of antigen-antibody reactions at pH 5.5 and pH 7.4 was carried out using a Biacore T100™ surface plasmon resonance system (GE Healthcare) for the three types of antibodies prepared as mentioned above: Anti-IL6 wild type, Anti-IL6 clone 1, and Anti-IL-6 clone 2 (buffer: DPBS(−) (pH 7.4 or pH 5.5), 150 mM NaCl). The antibodies were bound to a sensor chip on which recomb-protein A/G (Pierce) was immobilized by amine coupling, and then human IL-6 (Toray) adjusted to an appropriate concentration was injected on the chip as an analyte. All the measurements were carried out at 37° C. Association rate constants kₐ (1/Ms) and dissociation rate constants kd (1/s) were calculated using Biacore T100™ Evaluation Software (GE Healthcare), and dissociation constants KD (M) were calculated based on those values (Table 14). Furthermore, the ratio of affinity at pH 5.5 and pH 7.4 was calculated for each clone to evaluate the pH-dependent binding.

human IL-6 (Toray) [4] = molecular target: T3, human IL-6 (Toray); test: SPR Biacore T100, antibody on protein A/G chip, human IL-6 analyte, pH 5.5, 37 C
Protocol: as §2

human IL-6 (Toray) [5] = molecular target: T3, human IL-6 (Toray); test: SPR Biacore T100, antibody on protein A/G chip, human IL-6 analyte, pH 7.4, 37 C
Protocol: as §2

human IL-6 (Toray) [6] = molecular target: T3, human IL-6 (Toray); test: SPR Biacore T100, antibody on protein A/G chip, human IL-6 analyte, 37 C
Protocol: as §2

[7] = molecular target: T2, recombinant soluble human IL-6 receptor …; test: SPR Biacore T100, biotinylated SR344 on streptavidin chip (model of membrane-type IL-6 receptor), antibody as analyte, bound at pH 7.4, dissociation at pH 5.8, 37 C
Protocol: (§3) Binding to the membrane-type IL-6 receptor was evaluated by evaluating binding to the IL-6 receptor immobilized on a sensor chip. SR344 was biotinylated in accordance with a method known among persons with ordinary skill in the art, and the biotinylated SR344 was immobilized on the sensor chip via streptavidin using the affinity between streptavidin and biotin. All the measurements were carried out at 37° C. The mobile phase buffer was 10 mM MES (pH 5.8), 150 mM NaCl and 0.05% TWEEN® 20 (polyoxyethelene sorbitan monolaurate).
(§4) The pH-dependently-binding clones were injected under the condition of pH 7.4 to allow them to bind to SR344, and then, the pH-dependent dissociation of each clone at the pH of the mobile phase, pH 5.8, was observed. The results are shown in FIG. 21 (results for Fv1-M71, Fv1-M73, Fv3-M71, and Fv3-M73 are shown in FIG. 21, while results for other clones are shown in FIGS. 17 and 19). Analyses were carried out in the same manner as in Example 10 and the pH dependencies of the dissociation rate constants of all of the eleven types of clones are shown in Table 12.

[8] = molecular target: T2, recombinant soluble human IL-6 receptor …; test: SPR Biacore T100, biotinylated SR344 on streptavidin chip (model of membrane-type IL-6 receptor), antibody 0.25 ug/mL as analyte, 37 C
Protocol: as §3, §4

[9] = molecular target: T2, recombinant soluble human IL-6 receptor …; test: SPR Biacore T100, antibody captured by anti-IgG gamma chain F(ab)2, SR344 analyte, pH 7.4, 37 C
Protocol: (§5) Kinetic analyses of antigen-antibody reactions at pH 7.4 were carried out on the four types of antibodies, i.e., the humanized PM1 antibody (wild type: WT), and […], H3pI/L73-IgG1, Fv2-IgG1, and Fv4-IgG1 constructed in Examples 2 and 10, by using a Biacore T100™ surface plasmon resonance system (GE Healthcare) (buffer: 10 mM MES (pH 7.4), 150 mM NaCl, 0.05% TWEEN® 20 (polyoxyethelene sorbitan monolaurate)). Each antibody was bound on a sensor chip on which an anti-IgG γ chain specific F(ab)₂ (Pierce) was immobilized by amine coupling, and then, SR344 adjusted to a concentration of 9.8 to 40 nM was injected thereto as an analyte. The association to and dissociation from SR344 were observed on a real-time basis for the pH-dependent-binding clones. All the measurements were carried out at 37° C. Association rate constants kₐ (1/Ms) and dissociation rate constants kd (1/s) were calculated using Biacore T100™ Evaluation Software (GE Healthcare), and dissociation constants KD (M) were calculated on the basis of those values (Table 7).

[10] = molecular target: T2, recombinant soluble human IL-6 receptor …; test: SPR Biacore T100, biotinylated SR344 on streptavidin chip (model of membrane-type IL-6 receptor), antibody as analyte, bound at pH 7.4, dissociation at pH 7.4, 37 C
Protocol: as §3, §4

[11] = molecular target: T2, recombinant soluble human IL-6 receptor …; test: SPR Biacore T100, antibody captured by anti-IgG gamma chain F(ab)2, SR344 analyte, pH 7.4, 37 C; remark: listed apart in the source
Protocol: as §5
The association to and dissociation from SR344 were observed on a real-time basis using the same method as Example 10 for the eleven types of antibodies, humanized PM1 antibody (wild type: WT) and H3pI/L73-IgG1, Fv1-M71, Fv1-M73, Fv2-IgG1, Fv3-M71, Fv3-M73, Fv4-IgG1, Fv4-IgG2, Fv4-M58, and Fv4-M73, constructed as described above. The association rate constants kₐ (1/Ms) and dissociation rate constants kd. (1/s) were calculated by analysis in the same manner, and the dissociation constants KD (M) were calculated on the basis of those values (Table 11).

[12] = molecular target: T2, recombinant soluble human IL-6 receptor …; test: SPR Biacore T100, biotinylated SR344 on streptavidin chip (model of membrane-type IL-6 receptor), antibody 0.25 ug/mL as analyte, bound at pH 7.4, dissociation at pH 7.4, 37 C
[13] = molecular target: T2, recombinant soluble human IL-6 receptor …; test: SPR Biacore T100, biotinylated SR344 on streptavidin chip (model of membrane-type IL-6 receptor), antibody 0.25 ug/mL as analyte, bound at pH 7.4, dissociation at pH 5.8, 37 C
Protocol: as §3, §4

[14] = molecular target: T2, recombinant soluble human IL-6 receptor …; test: SPR Biacore T100, biotinylated SR344 on streptavidin chip (model of membrane-type IL-6 receptor), antibody as analyte, 37 C
Protocol: as §3, §4

Binder	KD (pH 5.5)/KD (pH 7.4) (human IL-6 (Toray) [3])	Kd (human IL-6 (Toray) [4]) [nM]	koff (human IL-6 (Toray) [4]) [s⁻¹]	kon (human IL-6 (Toray) [4]) [M⁻¹ s⁻¹]	Kd (human IL-6 (Toray) [5]) [nM]	koff (human IL-6 (Toray) [5]) [s⁻¹]	kon (human IL-6 (Toray) [5]) [M⁻¹ s⁻¹]	pH-dependent binding ability relative to WT (human IL-6 (Toray) [6]) [fold]	other results
B1									KD (pH 5.5)/KD (pH 7.4) [1]: 3.2; Kd [2]: 23 nM; koff [2]: 0.0034 s⁻¹; kon [2]: 140000 M⁻¹ s⁻¹
B2	0.8	0.0161	0.000245	1.52e+07	0.0191	0.000391	2.05e+07		
B3	13.5	3.98	0.011	2.76e+06	0.294	0.00263	8.96e+06	> 10	
B4	10.3	4.52	0.00926	2.05e+06	0.438	0.00471	1.07e+07	> 10	
B5									koff [7]: 0.0024 s⁻¹; kd (pH 5.8)/kd (pH 7.4) [8]: 7.18; Kd [9]: 2 nM; koff [9]: 0.00077 s⁻¹; kon [9]: 390000 M⁻¹ s⁻¹; koff [10]: 0.00034 s⁻¹; Kd [11]: 2 nM; koff [11]: 0.00077 s⁻¹; kon [11]: 390000 M⁻¹ s⁻¹; koff [12]: 0.00034 s⁻¹; koff [13]: 0.0024 s⁻¹; kd (pH 5.8)/kd (pH 7.4) [14]: 7.18
